We go through three substances from PMC11966780.

Common to all, as to experiment: label-free LC-MS/MS
Experiment [1] has as its target AAV-DJ capsid incorporating VP1 with a GFPnb inserted at position H631 (AAV-DJ | not stated).
The target of experiment [2] is AAV-DJ capsid incorporating VP3 with a GFPnb inserted at position H631 (AAV-DJ | not stated).
The target of experiment [3] is AAV-DJ capsid incorporating VP3 with the ALFAnb inserted at position H631 (AAV-DJ | not stated).

With “GFP tagged with a c-Myc NLS at the C-terminus”, in experiment [1], the GFP/capsid (GFP-NLS per capsid) was 1 to 3; the GFP/capsid, Rep1 is 0.89 GFP/capsid; the GFP/capsid, Rep2 was found to be 2.27 GFP/capsid; the GFP/capsid, Rep3 worked out at 0.81 GFP/capsid. In experiment [1], this substance registered a GFP/capsid, avg of 1.33 GFP/capsid. In experiment [2], this substance displayed a GFP/capsid (GFP-NLS per capsid) of 3 to 15; a GFP/capsid, Rep1 of 13.1 GFP/capsid; a GFP/capsid, Rep2 of 2.17 GFP/capsid; a GFP/capsid, Rep3 of 1.35 GFP/capsid.
Turning to “green fluorescent protein (GFP) (from UniProt P42212 1-238) (natural protein)”, in experiment [1], the GFP/capsid, Rep1 worked out at 0.89 GFP/capsid; the GFP/capsid, Rep2 was determined as 0.73 GFP/capsid; the GFP/capsid, Rep3 is 0.33 GFP/capsid; the GFP/capsid, avg was 0.65 GFP/capsid.
As to “GFP C-terminally tagged with a c-Myc NLS followed by the ALFA tag”, in experiment [3], the GFP/capsid (GFP-NLS-ALFA proteins per capsid) fell in the range of 1 to 9; the GFP/capsid, Rep1 turned out to be 8.63 GFP/capsid; the GFP/capsid, Rep3 was 0.3 GFP/capsid; the GFP/capsid, avg was 3.35 GFP/capsid.
